The values that follow come from US5780221A, “Identification of enantiomeric ligands” (Whitehead Institute for Biomedical Research, priority 1996, dated 1998).

Square brackets hold non-standard residues; d marks the D form. Ends that are not written are not given here.

The target in one data set is T1, (L)-SH3 (Gallus gallus, UniProt P00523).
T1 construct: E. coli BL21(DE3) pLysS, pMMHb TrpLE-His9 fusion, cleaved with CNBr
The data set can be described thus: Retention of bacterially expressed (L)-SH3 on peptide affinity column. Type of data set: binding. The settings on record: residues 81-140 of chicken c-Src. How it is done: The L- and D-enantiomers of the chicken c-SRC domain were prepared by bacterial expression and chemical synthesis, respectively. The biotinylated, synthetic, 60-amino acid D-SH3 domain was refolded and purified by affinity chromatography, with a D-amino acid version of a known peptide ligand for the SH3 domain (Yu, H., et al., Cell, 76:933 (1994)).
The all D amino acid SH3 domain, sequence […] S-COOH-terminus (SEQ ID No: 1), residues 81-140 of chicken c-SRC, was synthesized on HMP resin (ABI/Perkin Elmer) with an ABI 431A peptide synthesizer and ABI fastmoc cycles (Fmoc chemistry with HBTU activation and capping with acetic anhydride). Protected D-amino acids were obtained from Bachem California., Bachem Bioscience, Advanced Chemtech, and Novabiochem. For D-Ile and D-Thr, the side chain enantiomers were used, in which the chirality of the side chain is also inverted relative to naturally occurring L-Thr and L-Ile. After completion of the synthesis, the NH2 -terminus of the peptide was modified with NHS-LC-biotin II (Pierce). After cleavage, the peptide was lyophilized, dissolved in 6 M guanidine HCl, pH 6.0, and dialyzed against 100 mM NaHPO4 and 100 mM NaCl, pH 6.0, with the use of dialysis tubing with a molecular cutoff of 3,500 daltons (D) (Spectra/Por). […]

Data set [1] concerns the target T2, lectin concanavalin A (Con A) (Canavalia ensiformis, UniProt P02866).
T2 construct: mature circularly permuted chain
Kind of data set: Con A screen of the phage library. It is filed as binding. The settings on record: after 3 rounds. The protocol: The library was made by ligation of a random PCR product into Sfi I-cut Fuse 5 vector. After ligation the reaction mixture was extracted with phenol and chloroform, ethanol-precipitated and taken up in 10 mM Tris/1 m mM EDTA (pH 8.0). The ligation product was subsequently transferred into electrocompetent MC1061 cells (Biorad) using a Bio-Rad E. coli pulser and 0.1 cm cuvettes. After non-restrictive growth for 1 hr aliquots of transformed cells were plated on tetracycline-containing plates to determine the efficiency of transformation, yielding an initial library of 3.6×108 transformants. The transformation mixture was subsequently diluted to a volume of 400 ml LB and 20 μg/ml tetracycline, and grown for an additional 14 hrs. A phage stock was prepared by two successive polyethylene glycol (PEG) precipitations of the culture supernatant as described. The phage stock was finally resuspended in tris buffered saline/NaN3 and titered by infection of K91-kan cells (A21), yielding a total of 2.8×10^11 transforming units. The randomness of the inserts was confirmed by sequencing of individual clones. 4×10^10 transforming units were subsequently used to infect K91-kan cells to generate an amplified library. After 18 hrs phage were purified by three repetitive PEG precipitations yielding 10 ml of the amplified phage library (1.2-10^12 transforming units/ml) in TBS/NaN3. […]

Data set [2] concerns the target T3, (D)-Src SH3 domain (Gallus gallus, UniProt P00523). The data set can be described thus: Screening (selection rounds) of the phage library with the (D)-SH3 domain. Type of data set: binding, chicken. The settings on record: for Number of Isolates, low stringency: 4 rounds, 16 hrs phage incubation, washes 3', 5', 10' in rounds 2-4; for isolates after four rounds of selection: 29 clones sequenced after four rounds. From the text:
The all D amino acid SH3 domain, sequence […] S-COOH-terminus (SEQ ID No: 1), residues 81-140 of chicken c-SRC, was synthesized on HMP resin (ABI/Perkin Elmer) with an ABI 431A peptide synthesizer and ABI fastmoc cycles (Fmoc chemistry with HBTU activation and capping with acetic anhydride). Protected D-amino acids were obtained from Bachem California., Bachem Bioscience, Advanced Chemtech, and Novabiochem. For D-Ile and D-Thr, the side chain enantiomers were used, in which the chirality of the side chain is also inverted relative to naturally occurring L-Thr and L-Ile. After completion of the synthesis, the NH2 -terminus of the peptide was modified with NHS-LC-biotin II (Pierce). After cleavage, the peptide was lyophilized, dissolved in 6 M guanidine HCl, pH 6.0, and dialyzed against 100 mM NaHPO4 and 100 mM NaCl, pH 6.0, with the use of dialysis tubing with a molecular cutoff of 3,500 daltons (D) (Spectra/Por). After dialysis the material was spun briefly to remove insoluble debris, and the supernatant was subsequently dialyzed against 5% acetic acid and lyophilized. The peptide was dissolved at a concentration of 3.3 mg/ml in Tris-buffered saline (50 mM Tris, pH 7.5, and 150 mM NaCl) containing 1 mM biotin. The full biotinylated 60 amino acid (D)-SH3 domain length product was refolded and purified by affinity chromatography on an all-(D) version of a known substrate for the Src SH3 domain (D)-[…] (SEQ ID NO:2), Yu, H., et al., Cell, 76:933 (1994)), that was biotinylated and immobilized on a streptavidin-agarose column (Pierce). This peptide is a derivative of an all (L)-peptide shown to bind to the all (L)-SH3 domain (Yu, H., et al., Cell,76:933-945 (1994)), with an NH2 -terminal YGG added to facilitate concentration determination (H. Edelhoch, Biochemistry, 6:1948 (1967)). The L-peptide with the same NH2 -terminal YGG served as a control ligand in the experiments.
Single wells of a flatbottom 96 well high binding E.I.A./R.I.A. plate (Costar) were coated overnight with 10 μg streptavidin (Pierce) in 100 μl 100 mM NaHCO3 at 4° C. After a single wash with water, wells were incubated with 100 μl (10.7 μg) of biotinylated (D)-SH3 for 1 hr. at 20° C., blocked for 2 hrs with 30 mg/ml dialyzed bovine serum albumin (BSA) in 100 mM NaHCO3, and again incubated with 100 μl ([…]) of biotinylated (D)-SH3 for 1 hr. Unliganded streptavidin was blocked for 30 minutes by the addition of 8 μl 5 mM biotin in tris-buffered saline (TBS). Wells were subsequently washed 5 times with phosphate buffered saline (PBS) and 0.1% Tween-20, and incubated overnight with 50 μl of the phage stock in TBS/NaN3 and 50 μl of TBS, 0.1% Tween-20, 1 mg/ml BSA and 0.05% NaN3. Wells were subsequently washed by six additions of 200 μl of TBS, 0.1% Tween-20 and 1 mg/ml BSA with increasing incubation times in the later rounds of the selection procedure. (D)-SH3 bound phage particles were subsequently eluted by the addition of 100 μl D-SH3 ligand peptide (715 μM), sequence D-[…]-amide (SEQ ID No: 2), for 15 minutes at 4° C., at a final concentration of 700 to 1000 μM peptide. Acid elution of phages in this screen gives no detectable preferential binding to D-SH3 coated wells after four rounds of selection. The eluate was subsequently used to infect K91-kan cells. Briefly 100 μl eluate was mixed with 100 μl K91 Terrific Broth cells (prepared as described) an incubated for 20 minutes at room temperature. The mixture was subsequently transferred into an Erlenmeyer flask containing 20 ml LB/0.2 μg/ml tetracycline. After 1 hr incubation while shaking at 37° C., tetracycline was added to a final concentration of 20 μg/ml, appropriate dilutions were plated on tetracycline-containing plates ([…]) to determine the titer of the eluate and the culture was incubated at 37° C. for 12-16 hrs. Phage were isolated from the supernatant by two PEG precipitations and the resulting phage stock was used for titering to determine the yield, and for the subsequent round of selection. […]

For data set [3], the target named is T3, (D)-Src SH3 domain. The data set is described as above. It is filed as binding, chicken. The settings on record: for Number of Isolates, high stringency: 4 rounds, 2 fold less (D)-Src SH3, 1 hr phage incubation, washes 10' in rounds 2-4.
In data set [4] the target is T4, L-SH3 domain (Gallus gallus, UniProt P00523).
T4 construct: Residues 81 to 140 of chicken c-SRC were cloned; modified TrpLE leader (Met to Leu, Cys to Ala) (N, cleaved yes); His9 within the C-terminal region of the TrpLE leader (N, cleaved yes); made in house; host or cells: Escherichia coli BL21(DE3) pLysS, plasmid pMMHb-SRC SH3
The data set can be described thus: Screening of the phage library with the L-SH3 domain. Type of data set: binding, chicken. How it is done:
Phage display with the L-SH3 domain was also assessed. When the (L)-SH3 domain is used to screen a phage library (A12) for interacting sequences the poly-proline sequences that have been observed by others Rickles, R. J., et al., EMBO J., 13:5598 (1994); Sparks, A. B., J. Biol. Chem., 39:23853 (1994); Cheadle, C., et al., Ibid, 39:24034 (1994) are isolated.
The sequences of these peptides have features consistent with those described for class I and class II ligands of the SH3 domain ((Yu, H., et al., Cell, 76:933 (1994); Rickles, R. J. et al., EMBO J., 13:5598 (1994; Sparks, A. B., et al., J. Biol. Chem., 269:23853 (1994); Cheadle, C., et al., ibid., p. 24034)).

The target of data set [5] is T4, L-SH3 domain. Kind of data set: ELISA and NMR binding check of D-amino acid version of background sequence. On the set-up: species or system chicken. The settings on record: as judged by ELISA and NMR studies.
The subject of data set [6] is synthetic D-vasopressin (DVP). The data set can be described thus: Affinity chromatography on D-vasopressin (DVP) resin, in vitro selection of ssDNAs. The settings on record: for binding to DVP: affinity chromatography, positive ssDNA. It is filed as binding. From the text: In the first step toward generating an antagonist of the peptide hormone L-vasopressin, an in vitro selection was used to isolate single-stranded DNAs (ssDNAs) that bind synthetic D-vasopressin (DVP). A starting pool of 10^16 different 96-mers was synthesized on a DNA synthesizer. Each pool molecule contained a central region with 60 random-sequence positions that was flanked by two 18-nt defined regions. Molecules within this starting pool that bind DVP were enriched by affinity chromatography. The affinity resin was prepared by coupling biotinylated DVP to streptavidin agarose. The ssDNA pool was radiolabeled, denatured, renatured in a physiological buffer and passed over this resin. […] Eluted pool was amplified by PCR using a negative-strand "primer-terminator", that is, an oligonucleotide bearing a central segment of non-nucleotide material that blocks further extension of the positive strand (Williams, K. P. and Bartel, D. P., Nucleic Acids Res., 23:4220-4221 (1995)). Such PCR results in a substantial size difference between the two product strands, facilitating gel-purification of the positivestrand ssDNA pool. This combination of affinity chromatography and PCR constituted one cycle of selection amplification.
After thirteen iterations of the selectionamplification cycle the pool was cloned. […] Positive ssDNA of each sequence binds DVP and both have potential to form very similar secondary structures.

As for “(D)-YGGRELPPLPRF ([dY]GG[dR][dE][dL][dP][dP][dL][dP][dR][dF]; also: biotinylated, site not given here) [all-(D) version of a known substrate for the Src SH3 domain]”, the “retention of bacterially expressed (L)-SH3 on peptide column” value with (L)-SH3 is recorded as “not on the (D)-enantiomer”. For “AS M W M Y P Y P W G V SA (ASMWMYPYPWGVSA)”, the “number in parentheses after sequence, Con A screen” value in data set [1] was 9. Same read-out and setting: the figure for “AS W R Y N Y A F M R Y SA (ASWRYNYAFMRYSA)” is 1.

In the case of “CAYGFKLGLIKC [clone has alanine to arginine substitution directly amino terminal to the insert]”, the “Number of Isolates, low stringency” value on (D)-Src SH3 domain [2] stood at 1.

As for CKRFVWRGQALC, the “Number of Isolates, high stringency” value with (D)-Src SH3 domain [3] was determined as 14. Besides, in the data set with (D)-Src SH3 domain [2], the “Number of Isolates, low stringency” value amounted to 10 and the “isolates after four rounds of selection” value is given as 10 isolates.

With CLARSRLPAIPS, in the data set with L-SH3 domain [4], the “isolates after four rounds of selection with the L-SH3 domain” value is recorded as “nine”. CLMGLRLGLLPC: the “sequences revealed after fifth round of selection” value with (D)-Src SH3 domain [3] (fifth round with neutravidin as a matrix) is given as “only sequences of the fdSRC-2-type”. In addition, the “Number of Isolates, low stringency” value with (D)-Src SH3 domain [2] came to 4. Regarding CLSGLRLGLVPC, the “Number of Isolates, low stringency” value in the data set with (D)-Src SH3 domain [2] turned out to be 2.

Take CSRASWRGLLFC: the “Number of Isolates, high stringency” value with (D)-Src SH3 domain [3] is 1. In the case of CWYLGYWPGQEC, in the data set with (D)-Src SH3 domain [2], the “Number of Isolates, low stringency” value was 12 and the “isolates after four rounds of selection” value is 12 isolates. Turning to “D-amino acid version of this sequence: D-amino acid version of CKRFVWRGQALC (SEQ ID No: 13) ([dC][dK][dR][dF][dV][dW][dR]G[dQ][dA][dL][dC]; cysteine pairing not given here)”, in the data set with L-SH3 domain [5], the “binding to the L-SH3 domain” value is “fails to bind to the L-SH3 domain”.

On to SRMSPLVPLRNS, for which, in the data set with L-SH3 domain [4], the “isolates after four rounds of selection with the L-SH3 domain” value was “one”.

B1: 96.2: D-vasopressin aptamer, ssDNA 96-mer (nucleic acid)
chain: TCTAACGTGAATGATAGACGGCGAATCCCCAATGCGAAGCAGTGGTTTTGCAGTCGAGTTGCTGTGTGCCGATGAGCGTTAACTTATTCGACCAAA
modifications: DNA, backbone not given here
notes: D-vasopressin aptamer, ssDNA 96-mer
For B1, the “binding to DVP” value in data set [6] is listed as “binds DVP”.

B2: 69.1: D-vasopressin aptamer, deletion derivative of 96.4 (nucleic acid)
chain: TCTAACGTGAATGATAGACGTTACGTGTCTACACTATGTCGAGTTGCTGTGTGCCGATGAACGTGGGAT
modifications: chemistry not given here
For the molecule B2, the “elution from the DVP resin by L-vasopressin” value in data set [6] (DVP resin, L-vasopressin) is listed as “not eluted from the DVP resin by L-vasopressin”. Further, the “binding to DVP” value in data set [6] is “appears to bind DVP better than does the parent sequence”.

B3: 96.4: D-vasopressin aptamer, ssDNA 96-mer (nucleic acid)
chain: TCTAACGTGAATGATAGACGTTACGTGTCTACACTATGTCGAGTTGCTGTGTGCCGATGAACGTGGGATTAGAGCGTGTTAACTTATTCGACCAAA
modifications: DNA, backbone not given here
notes: as for B1
In the case of B3, in data set [6], the “binding to DVP” value is reported as “binds DVP”.
